From article PMC6104806 (Nature structural & molecular biology, 2018)
Changes are numbered by the printed parent chain. Where two headings read alike, the source gives them in different places.

B1: CmDnm1 (native), mitochondrial fission dynamin from Cyanidioschyzon merolae (natural protein, UniProt Q84Y91 1-768, looked up)
chain: MERLIPIVNKLQDLFAETGLDSPIDLPQIMVVGAQSSGKSSVLENVVGESIFPRGTGIVTRRPIVVQLYCTARERLNQSGAPDNMFNEDGSYVLSDGAPTDPRSIPPGAENQAYAEFLHKPGVRFYNFDDVRAEIERETDRVTGKNKGISPKAINLRVYSPHVVNLTVVDLPGLTKVPVGDQPSDIERLIRAMVLSYIERPNAIILAVHPATMDLATSDALQIARQADPEGRRTLGVITKLDLMDKGTDAMEMLTGKVIPLKLGYIGVICRGPADLRAGKSIQQAREDEIRFFRSHPVYRRLLPQLGTNTLARTLSTLLMKHIRDTLPSIRQKMSQQLAEWRKELQTLGPAFEGADDLGGALLNVINRYSSEFAKSLEGNSQQTVNTQELYGGARINYIFNDIYAKELQSMNAFEGLTREDIRTAIRNATGHRSPLFVPELAFELLVKKQITHFVPPAYSCVDLVYDELVRLALNCETELLQRYENLRSEILACAQNLLRELKQPCLEMVQNLIAMETSYISVNHKDFIGGNKAMSQLVRARMEEEERRTRSAKAANSTDNAANSAPKESNANDNRILQPRRRNQDENAKKNDDARRKDDKSPNKTDASNAEKDARSDRNPRGDPTMDNFFNEADEDEEDGNERRNRGLHTLPSVPEHLKAGEVSSDRDRDDIELIQTLLASYFDVVRVNMMDMVPKAIMSFLVLRARDRMQSRLVADLYKPERMSELLNESSDVAERRATAKRMVDLLQRGMAVINEVRDVHVKEEI
B2: CmDnm1 GHRS431-434AAAA, self-assembly limiting stalk mutant (natural protein, Cyanidioschyzon merolae, UniProt Q84Y91 1-768, looked up)
chain: B1 chain with G431A, H432A, R433A, S434A

Assays:
[1] = biological target: the molecule itself; test: SEC
[2] = biological target: the molecule itself; test: SEC; remark: listed apart in the source

Protein | stoichiometry N [1] | stoichiometry N [2]
B1 | 4 | 
B2 |  | 4
